Source: US20250019439A1 (Adimab, published 2025)

Assays:
CTL-19613 anti-CD3 bsIgG = molecular target: T1, CTL-19613 anti-CD3 bsIgG (In the assay the two domains were one scFv (VL-VH orientation, linker not given). It replaced one Fab arm of an anti-HER2 IgG; S354C and Y349C mutations are stated for disulfide stabilization.); test: BLI; tip anti-CD3 bsIgG, solution ADI-34145 IgG
T1 construct: anti-HER2 IgG with one Fab arm replaced by the anti-CD3 scFv (printed 'Vx-VH', read as VL-VH); S354C and Y349C mutations; also called anti-CD3 bsIgG (CTL-19613 scFv); not shown: scFv linker between VL and VH; anti-HER2 heavy and light chains of the other arm; hinge and Fc (with S354C / Y349C)
Experimental: (§1) ForteBio affinity measurements were performed generally as previously described (Estep et al., MAbs. 2013 5(2):270-8). Briefly, ForteBio affinity measurements were performed by loading antibody IgG or Fabs on-line onto AHC sensors. Sensors were equilibrated off-line in assay buffer for 30 minutes and then monitored on-line for 60 seconds for baseline establishment. For avid binding measurement, sensors with loaded antibodies were exposed to IgG or Fab solutions for 3 minutes, afterwards they were transferred to assay buffer for 3 minutes for off-rate measurement. Kinetics data were fit using a 1:1 binding model in the data analysis software provided by ForteBio to obtain equilibrium dissociation constant (KD=koff/kₒₙ) values. In each column, tip-immobilized antibodies are listed first and solution antibodies second.
(§2) Additional analysis was conducted using bispecific antibody formats incorporating anti-CD3 antibody variable domains. Bispecific antibodies were prepared using standard IgG formats (bsIgG) with replacement of Fab arms with anti-CD3 scFvs in Vx-VH orientation and with S354C and Y349C mutations for disulfide stabilization. Antibodies used for Fab arm replacement were anti-HER2 IgG antibodies, with one Fab arm from each replaced by a scFv corresponding to a different anti-CD3 antibody. […] In each column, tip-immobilized antibodies are listed first and solution antibodies second. Anti-CD3 antibodies associated with incorporated scFvs are listed by antibody number.

CTL-19672 anti-CD3 bsIgG = molecular target: T2, CTL-19672 anti-CD3 bsIgG (In the assay the two domains were one scFv (VL-VH orientation, linker not given). It replaced one Fab arm of an anti-HER2 IgG; S354C and Y349C mutations are stated for disulfide stabilization.); test: BLI; tip anti-CD3 bsIgG, solution ADI-34145 IgG
T2 construct: anti-HER2 IgG with one Fab arm replaced by the anti-CD3 scFv (printed 'Vx-VH', read as VL-VH); S354C and Y349C mutations; not shown: scFv linker between VL and VH; anti-HER2 heavy and light chains of the other arm; hinge and Fc (with S354C / Y349C)
Experimental: as §1, §2

T2 sequence (VH, as listed by the source limits assumed, chain 1 of 2): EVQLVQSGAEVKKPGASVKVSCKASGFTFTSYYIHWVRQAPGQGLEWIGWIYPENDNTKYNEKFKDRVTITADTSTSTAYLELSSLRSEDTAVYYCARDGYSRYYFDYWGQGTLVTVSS
T2 sequence (VL, as listed by the source limits assumed, chain 2 of 2): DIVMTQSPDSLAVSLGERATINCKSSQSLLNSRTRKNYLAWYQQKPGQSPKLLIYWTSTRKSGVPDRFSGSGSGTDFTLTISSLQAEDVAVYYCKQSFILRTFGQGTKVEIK

B1: ADI-34145 IgG (antibody, V domains shown)
VH: EVQLLESGGGLVQPGGSLRLSCAASGFTFSSYAMSWVRQAPGKGLEWVSTISGSGGSTYYADSVKGRFTISRDNSKNTLYLQMNSLRAEDTAVYYCARLGGRRGSGSSYYYYYGMDVWGQGTTVTVSS
VL: not shown
notes: anti-ID IgG
B1: no binding (CTL-19613 anti-CD3 bsIgG); no binding (CTL-19672 anti-CD3 bsIgG).
